PMC2807882, “Conservation of DNA-binding specificity and oligomerisation properties within the p53 family”

Experiments:
Assay in all cases: fluorescence anisotropy direct titration; 25 mM sodium phosphate (purification buffer pH 7.2), 225 mM NaCl, 10% v/v glycerol, 5 mM DTT, 0.2 mg/mL BSA, 22 C
Conditions in all cases: protein: recombinant; tags: N-terminal 6xHis-lipoyl-TEV tag, cleaved; chain copies: 4; label: 5'-Alexa488
ΔNp63γ = target: T1, ΔNp63γ (Homo sapiens, UniProt Q9H3D4-6 1-393)
T1 sequence: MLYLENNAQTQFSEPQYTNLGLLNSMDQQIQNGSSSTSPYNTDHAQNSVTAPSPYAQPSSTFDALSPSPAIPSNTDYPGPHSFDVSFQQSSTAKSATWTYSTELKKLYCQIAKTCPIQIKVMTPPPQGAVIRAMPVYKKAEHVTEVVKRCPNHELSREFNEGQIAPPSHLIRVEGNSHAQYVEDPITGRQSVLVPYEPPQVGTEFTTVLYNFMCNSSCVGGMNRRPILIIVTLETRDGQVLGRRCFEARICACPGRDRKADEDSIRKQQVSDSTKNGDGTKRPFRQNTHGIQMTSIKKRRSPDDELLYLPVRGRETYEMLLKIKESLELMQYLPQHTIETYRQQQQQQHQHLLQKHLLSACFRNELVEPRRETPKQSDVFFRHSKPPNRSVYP

Mmp53 = Mmp53 (Mus musculus, UniProt P02340 1-390)
ΔNp63α = target: T2, ΔNp63α (Homo sapiens, UniProt Q9H3D4-2 1-586)
T2 sequence: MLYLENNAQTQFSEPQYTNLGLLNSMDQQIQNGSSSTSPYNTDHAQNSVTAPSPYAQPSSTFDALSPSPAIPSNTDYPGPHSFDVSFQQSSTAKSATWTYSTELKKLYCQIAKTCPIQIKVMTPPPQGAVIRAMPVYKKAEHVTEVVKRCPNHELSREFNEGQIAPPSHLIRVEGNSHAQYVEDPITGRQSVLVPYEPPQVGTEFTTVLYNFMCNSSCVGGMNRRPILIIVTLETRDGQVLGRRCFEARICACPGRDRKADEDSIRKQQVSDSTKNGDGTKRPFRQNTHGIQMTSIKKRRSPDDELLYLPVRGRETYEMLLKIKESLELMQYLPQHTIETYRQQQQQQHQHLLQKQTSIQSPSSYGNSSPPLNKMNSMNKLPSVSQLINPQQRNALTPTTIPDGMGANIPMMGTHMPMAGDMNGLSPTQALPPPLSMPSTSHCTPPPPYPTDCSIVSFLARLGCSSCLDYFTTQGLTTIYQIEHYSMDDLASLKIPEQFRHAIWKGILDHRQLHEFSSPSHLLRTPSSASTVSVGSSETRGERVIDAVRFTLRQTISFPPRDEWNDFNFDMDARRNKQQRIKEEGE

Hsp53 = Hsp53 (Homo sapiens, UniProt P04637 1-393)
ΔNp73β = target: T3, ΔNp73β (Homo sapiens, UniProt O15350-9 1-450)
T3 sequence: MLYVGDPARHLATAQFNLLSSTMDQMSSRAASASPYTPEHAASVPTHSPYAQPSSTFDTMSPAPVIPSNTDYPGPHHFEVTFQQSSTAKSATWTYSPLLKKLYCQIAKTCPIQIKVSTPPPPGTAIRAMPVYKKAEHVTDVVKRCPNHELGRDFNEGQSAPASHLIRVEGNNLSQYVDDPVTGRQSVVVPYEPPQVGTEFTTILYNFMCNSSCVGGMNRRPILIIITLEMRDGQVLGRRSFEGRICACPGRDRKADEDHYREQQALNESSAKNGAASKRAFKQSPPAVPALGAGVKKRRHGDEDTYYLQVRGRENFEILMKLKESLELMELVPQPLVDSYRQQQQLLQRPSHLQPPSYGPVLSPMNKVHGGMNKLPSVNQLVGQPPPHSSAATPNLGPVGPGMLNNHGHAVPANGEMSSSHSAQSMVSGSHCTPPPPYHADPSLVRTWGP

ΔNp63β = target: T4, ΔNp63β (Homo sapiens, UniProt Q9H3D4-4 1-461)
T4 sequence: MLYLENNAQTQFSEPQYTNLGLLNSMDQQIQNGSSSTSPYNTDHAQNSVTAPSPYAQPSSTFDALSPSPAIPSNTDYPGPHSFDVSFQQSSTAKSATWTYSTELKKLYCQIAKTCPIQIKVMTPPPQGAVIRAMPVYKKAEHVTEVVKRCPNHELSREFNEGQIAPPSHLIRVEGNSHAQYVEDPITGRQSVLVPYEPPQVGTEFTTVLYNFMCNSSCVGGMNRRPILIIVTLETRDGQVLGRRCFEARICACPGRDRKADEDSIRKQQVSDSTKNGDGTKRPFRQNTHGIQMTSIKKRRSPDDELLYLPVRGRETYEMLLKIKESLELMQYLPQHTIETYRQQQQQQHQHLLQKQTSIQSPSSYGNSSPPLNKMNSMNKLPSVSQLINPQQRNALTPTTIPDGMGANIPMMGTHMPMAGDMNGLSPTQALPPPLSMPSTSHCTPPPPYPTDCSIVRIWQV

Hsp53, sequence (P04637 whole entry): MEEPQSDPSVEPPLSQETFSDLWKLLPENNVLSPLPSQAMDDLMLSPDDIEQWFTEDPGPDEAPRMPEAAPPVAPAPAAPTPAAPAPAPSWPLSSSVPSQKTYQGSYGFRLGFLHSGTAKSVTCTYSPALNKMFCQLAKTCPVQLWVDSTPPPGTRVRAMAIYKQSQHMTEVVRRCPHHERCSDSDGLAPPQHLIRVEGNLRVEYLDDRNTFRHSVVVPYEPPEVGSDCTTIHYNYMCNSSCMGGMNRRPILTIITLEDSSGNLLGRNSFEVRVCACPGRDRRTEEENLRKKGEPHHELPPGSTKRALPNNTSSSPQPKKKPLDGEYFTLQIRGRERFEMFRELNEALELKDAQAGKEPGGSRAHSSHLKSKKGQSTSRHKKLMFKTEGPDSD
Mmp53, sequence (P02340 whole entry): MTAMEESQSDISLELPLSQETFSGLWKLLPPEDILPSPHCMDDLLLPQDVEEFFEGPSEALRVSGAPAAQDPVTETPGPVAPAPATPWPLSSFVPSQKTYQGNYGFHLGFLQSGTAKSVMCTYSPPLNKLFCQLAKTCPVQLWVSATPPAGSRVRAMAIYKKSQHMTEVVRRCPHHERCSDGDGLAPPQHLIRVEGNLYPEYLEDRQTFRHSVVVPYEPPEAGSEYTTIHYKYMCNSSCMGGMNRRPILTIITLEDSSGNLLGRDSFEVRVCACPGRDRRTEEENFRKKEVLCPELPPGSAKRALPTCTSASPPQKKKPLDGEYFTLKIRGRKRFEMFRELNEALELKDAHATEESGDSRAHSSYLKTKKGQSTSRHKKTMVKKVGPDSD

B1: Ref_Alexa488 (dsDNA)
DNA 1: GGACATGTCCGGACATGTCC
DNA 2: GGACATGTCCGGACATGTCC
B1 gave a Kd (ΔNp63γ) of 67.6 nM, a Kd (Mmp53) of 95.5 nM and a Kd (ΔNp63α) of 75.9 nM. For the same binder, the Kd (Hsp53) was 56.2 nM, the Kd (ΔNp73β) was 55 nM and the Kd (ΔNp63β) was 74.1 nM.
